{"source": "paper PMC7987023", "about": "(bioRxiv, 2021)", "binders": {"B1": {"name": "C051 Fab (Fab, V domains shown)", "VH": "EVQLVESGGGLIQAGGSLRLSCAASGFGVRNNYMSWVRQAPGKGLEWVSVIYSGGTTYYADSVKGRFTISRDNSKNTVFLQMNSLRAEDTAVYYCAREGDVEGFSDLWSGYSRDRYYFDYWGQGTLVTVSS", "VL": "QSVLTQPASVSGSPGQSITFSCTGTSSDVGGYNYVSWYQQYPGKAPKLLIYDVTNRPSGVSDRFSGSKSGNTASLTISGLQAEDEADYYCSSFTSSNTRVFGTGTKVTVL"}}, "biological_target": "SARS-CoV-2 6P stabilized S trimer (SARS-CoV-2, Wuhan-Hu-1 reference, UniProt P0DTC2, stabilised)", "assay": "cryo-EM structure"}
{"binder": "B1", "values": [{"measurement": "binding result", "value": "binds"}]}
